Data from the supplement of paper PMC10567573.
± gives the standard deviation.

Experiment: protein stability index of a GFP-peptide fusion (GPS, HEK-293T) (PSI 1-6); higher = more stable
[1] = treatment: DMSO, c terminus: a fixed tail appended
[2] = treatment: MLN4924 1 uM, 8 h, c terminus: a fixed tail appended
[3] = treatment: DMSO, c terminus: native
[4] = treatment: MLN4924 1 uM, 8 h, c terminus: native
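Also: 24-mer peptide tiles fused after GFP, lentivirally expressed, FACS-sorted into six equal bins by GFP/DsRed ratio, decoded by Illumina sequencing, PSI is the read-weighted mean bin number.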

Sequence | protein stability index [1] | protein stability index [2] | protein stability index [3] | protein stability index [4]
SEEMIAEFKAAFDMFDADGGGDIS [TNNC2] | 5.16 ± 0.32 | 5.11 ± 0.43 | – | –
AANEQLTRAILRERICSEEERAKA [CHCHD3] | 4.82 ± 0.23 | 4.97 ± 0.19 | – | –
KQAKVVARRESGGRPIKPPKKDLE [BRD3] | 5.08 ± 0.27 | 5.05 ± 0.24 | – | –
TFLTVTDLIGLPWVCFIYTIMSLA [SLC2A12] | 3.38 ± 0.45 | 2.84 ± 0.58 | – | –
CRETGSFLDLFRYRVLLGHTLILM [SLC22A15] | 2.97 ± 0.59 | 2.45 ± 0.38 | – | –
QYAIISEAWRLVEEGIVSPSDLDL [CRYL1] | 3.16 ± 0.19 | 3.21 ± 0.34 | – | –
FKLDKKYQRPQDSEDMWGDEDFTF [FBF1] | 4.12 ± 0.18 | 4.14 ± 0.23 | – | –
RGADDAMESSKPGPVQVVLVQKDQ [ATL3] | 5.09 ± 0.3 | 4.95 ± 0.62 | – | –
VYSDHTNTNNLTFLMDLPSAGRSM [RNF180] | 2.29 ± 0.45 | 2.79 ± 0.42 | – | –
LRYSVVEESEPGTLVGNVAQDLGL [PCDHGC5] | 3.94 ± 0.13 | 3.86 ± 0.26 | – | –
LRNKLRELCVKLMFLHPVDYGRKA [SMG5] | 3.21 ± 0.36 | 3.03 ± 0.51 | – | –
FDPLRNEYFFDRNRPSFDAILYYY [KCNA1] | 2.68 ± 0.45 | 2.73 ± 0.48 | – | –
ETNLLLAQKQRLERALDATEVPFS [TEKT4] | 4.1 ± 0.29 | 4.21 ± 0.25 | – | –
YVDIHTGLSGSGVAFVCAFSEALA [PYCR3] | 2.72 ± 1.2 | 2.4 ± 1 | – | –
LALGPILRLYKHNSQALLLHSSIL [MFSD9] | 3.12 ± 0.78 | 2.59 ± 0.37 | – | –
RAKFKRKYKVKLVEKRAFREIQL [NOP53] | – | – | 2.56 ± 0.36 | 2.79 ± 0.17
ALWKHLKSMHREELEKSGHGQAGQ [ZBED2] | 2.98 ± 0.38 | 3.48 ± 0.43 | – | –
WLSTAPTEPLTHWYQVRCLFQSPL [CARM1] | 2.44 ± 1 | 2.19 ± 0.4 | – | –
VRQINRKTPVPGKARKKSSCQLL [RAP1B] | – | – | 4.5 ± 0.27 | 4.44 ± 0.18
EILNFNQYYEACRKAAKSLIKLGL [ACSBG2] | 1.91 ± 0.39 | 2.92 ± 1.3 | – | –
FIRCSLQCRDLVDEAKKFHLRPEL [KLHL12] | 2.67 ± 0.8 | 2.82 ± 1.4 | – | –
LEFAYYFRPGHLLANACLPVRTTN [ZSWIM9] | 2.47 ± 0.67 | 2.25 ± 0.28 | – | –
SINQRLNKRERSKLKNLRRKQRRR [RNF180] | 3.9 ± 0.14 | 3.93 ± 0.24 | – | –

Sequence | protein stability index [1] | protein stability index [2] | protein stability index [3] | protein stability index [4]
SSGQCRRRKRTYWNDSCGEDMEAS [WEE1] | 4.18 ± 0.43 | 4.52 ± 0.43 | – | –
LFLKDVLGDEICCWSFYGQGRKIA [KCTD13] | 2.64 ± 0.42 | 2.07 ± 0.55 | – | –
RQLRRRALHPERAMDNHSDSEEEL [RETREG3] | 5.47 ± 0.15 | 5.51 ± 0.2 | – | –
KKQQELTAAVLGLICEGLYPASIV [ZBED1] | 2.97 ± 0.63 | 3.02 ± 0.58 | – | –
PWCPHLVAVCPIPAAGLDVTQPCG [HDAC6] | 2.4 ± 0.24 | 2.67 ± 0.34 | – | –
QNQPIDKARKTYERLVAQFPSSGR [CSTF3] | 3.75 ± 0.26 | 3.9 ± 0.24 | – | –
IKNLYAFNLFCQKRFDESMQVFAK [VPS39] | 2.19 ± 0.29 | 1.96 ± 0.21 | – | –
DYVHISSKPCDLHCTTVDGQRQLM [ADAMTSL2] | 3.45 ± 0.29 | 3.44 ± 0.23 | – | –
WIGNEWLPSLGLPQYRSYFMECLV [PPFIA4] | 3.67 ± 0.24 | 2.15 ± 0.088 | – | –
AFACQVAGCCQVFDALDDYEHHYH [ZNF511] | 2.97 ± 0.45 | 2.74 ± 0.5 | – | –
QGRNSLWLSDWVTSYKVMVSNDSH [CPXM2] | 1.92 ± 0.25 | 2.47 ± 0.56 | – | –
EEQRVEQQTKLEAEKLKVQALKDR [LSM1] | 5.55 ± 0.28 | 5.36 ± 0.12 | – | –
KTQICHTLAVTCQLPIDRGGGEGK [RAD51] | 3.81 ± 0.17 | 3.95 ± 0.42 | – | –
TSFEPEALGNLVEGMDFHRFYFEN [CAMK2B] | 3.14 ± 0.27 | 3.18 ± 0.26 | – | –
NVSGLRFETQMKTLAQFPETLLGD [KCNA4] | 3.53 ± 0.48 | 3.86 ± 0.1 | – | –
SMSSRLSIYDNVPGSILYSSSGDL [DLC1] | 3.24 ± 0.089 | 3.13 ± 0.22 | – | –
RGPSPVVLGSQDALPIATAFTEYV [FCHO1] | 3.14 ± 0.39 | 3.18 ± 0.3 | – | –
LEDGFYLTAFICFLVFILNAGLVW [MFSD9] | 3.23 ± 0.84 | 2.73 ± 0.95 | – | –
MSLVLHGNNLLVFGGTGIPFGESN [KLHDC10] | 2.74 ± 0.69 | 2.81 ± 0.52 | – | –
ESSNDFGPYEGGGPVAGLDDSGGP [ZBTB22] | 5.03 ± 0.42 | 5 ± 0.13 | – | –
PPPCKFGEGKLSKRLKHKDDSVMK [C22orf31] | 4.51 ± 0.15 | 4.61 ± 0.06 | – | –
ARLMRSNYPPPLSSAALRGAGPTR [C6orf223] | 3.79 ± 0.2 | 3.96 ± 0.14 | – | –
SLEISPQNVDVNVHPTKHEVHFLH [MLH1] | 3.46 ± 0.23 | 3.63 ± 0.32 | – | –

Sequence | protein stability index [1] | protein stability index [2] | protein stability index [3] | protein stability index [4]
ILTIMATLKIRNSNFYTVAVTSLS [TMEM106C] | 3.3 ± 0.36 | 3.16 ± 0.38 | – | –
HQTLKCSALATQYMHCVNHAKQSM [CHCHD3] | 2.1 ± 0.22 | 2.29 ± 0.17 | – | –
KSEGQKIPKVELQISIYGVKILEP [GULP1] | 2.84 ± 1 | 2.3 ± 1.1 | – | –
EKDLVGLAQIAEVLEMFDLRMMVE [RHOBTB1] | 2.46 ± 0.21 | 2.22 ± 0.38 | – | –
DARDGQSRTVRQFQFTDWPEQGVP [PTPRD] | 4.08 ± 0.61 | 4.32 ± 0.41 | – | –
LTVNTEAQQLLREFEEATGEAGWG [FOXJ1] | 4.55 ± 0.14 | 4.62 ± 0.073 | – | –
TFDNDYSLSELLSQLDSGVSQAVE [RIPK4] | 4 ± 0.074 | 4.1 ± 0.26 | – | –
YLDLPGSRQGSAEALRALQEGLWL [PKD2L1] | 2.71 ± 0.27 | 2.64 ± 0.34 | – | –
NVQTEFPGEDENPEKASELSQVEL [TRIM55] | 5.48 ± 0.35 | 5.57 ± 0.3 | – | –
EDPDYYGQEIWSREPYYARPEPEL [CPXM2] | 4.38 ± 0.11 | – | – | –
HRILLLAISLTKCLESTKLLADLK [MIA2] | 2.73 ± 0.35 | 3.339 ± 0.011 | – | –
GLGLEDADWTQGLPWRFEELLTCS [TEX19] | 2.42 ± 0.47 | 2.76 ± 0.62 | – | –
TREGFGHSTSLKVPLARSLQISEE [LCOR] | 3.39 ± 0.44 | 3.82 ± 0.22 | – | –
VPERLLVVLDMEEGTLGYAIGGTY [SPSB2] | 2.69 ± 0.74 | 2.35 ± 0.56 | – | –
FIAGLCVFIISTLAIDFIDEGRLL [SOAT2] | 2.81 ± 0.6 | 3.01 ± 0.33 | – | –
SLESEEEEYPGITAEDSNDIYILP [BCL2L13] | 5.06 ± 0.22 | 5.05 ± 0.23 | – | –
EKEIPVLNELPVPMVARYIRINPQ [CPXM2] | 3.16 ± 0.26 | 3.25 ± 0.18 | – | –
SKLAQLTLEQILEHLDNLRLNLTN [INTS3] | 2.3 ± 0.39 | 2.2 ± 0.21 | – | –
LKGYPSLMRSQSPKAQPQTWKSGK [TRIM29] | 3.88 ± 0.36 | 3.93 ± 0.22 | – | –
CISDELLENLCENASTLRTINIKC [FBXO39] | 2.47 ± 0.2 | 2.69 ± 0.28 | – | –
QRITQEQEKKLSFIEALIQQYQEQ [TRIM63] | 2.68 ± 0.36 | 3.02 ± 0.52 | – | –
ELHRRLDEEQQVLLSRLEEEEQDI [TRIM39] | 5.426 ± 0.033 | 5.49 ± 0.17 | – | –
TLIDGGEHYWEVRYEPDSKAFGVG [FSD1] | 2.65 ± 0.27 | 2.86 ± 0.39 | – | –

Sequence | protein stability index [1] | protein stability index [2] | protein stability index [3] | protein stability index [4]
PQHAADTPKSGEPRVPEEAAQDRP [YJU2B] | 5.62 ± 0.26 | 5.42 ± 0.26 | – | –
PEGQELQKLGSGAWDNPAYSGPPS [PKD2L1] | 4.53 ± 0.35 | 4.93 ± 0.36 | – | –
LPEELRRLSGLSSVGHNWRKRMGT [C22orf15] | 2.99 ± 0.18 | 3.07 ± 0.22 | – | –
EGSPRNLGTPTSSTPRPSITPTKK [C2CD2L] | 5.35 ± 0.19 | 5.34 ± 0.17 | – | –
KEAKEFLVQLRNMVQQIQENSVEF [TRIM9] | 2.29 ± 0.31 | 2.41 ± 0.23 | – | –
ASKSKGAAVKLADFGLAIEVQGDQ [CAMK2D] | 4.13 ± 0.37 | 4.37 ± 0.3 | – | –
LTINPAKRITASEALKHPWICQRS [CAMK2D] | 2.57 ± 0.1 | 2.72 ± 0.25 | – | –
VGFMWRQRGRVISLWERLEFVNGW [MCOLN1] | 2.59 ± 0.65 | 3.05 ± 0.62 | – | –
ESDSRKVAEETPDGAPALCPSPEA [PRKX] | 5.69 ± 0.17 | 5.58 ± 0.3 | – | –
GALYGITLIPTCKFYTWLWGVFYY [SCD] | 2.39 ± 0.41 | – | – | –
TASYPSDGCGADGLRSRVKYGVKT [NOL4L] | 3.84 ± 0.24 | 3.98 ± 0.32 | – | –
SDTTPLPSWAALNSSTWGSLKQAL [SNX8] | 2.7 ± 0.2 | 2.94 ± 0.12 | – | –
EAEADEEADPPASDLPTPQAIEPQ [SNX8] | 5.62 ± 0.17 | 5.63 ± 0.26 | – | –
VLLNSLQQYRQDQRDGSKSEDELD [CCND2] | 4.32 ± 0.18 | 4.15 ± 0.52 | – | –
VEFVRHGDIIRLEHKETSRNLHSH [POMT2] | 3.02 ± 0.27 | 3.04 ± 0.25 | – | –
SEDLDGHSDPEESFARDLPDFPSI [RETREG3] | 5.33 ± 0.2 | 5.13 ± 0.45 | – | –
GHGTRKRVPLGRLELLEEVLALGL [RSAD1] | 2.15 ± 0.21 | 2.3 ± 0.51 | – | –
WIHRPGCRCKNSNTVYCKLESCPS [SPRY1] | 2.62 ± 0.26 | 3.21 ± 0.78 | – | –
VACGMVHLLIPELGACVAPGGNLI [DNAAF3] | 2.78 ± 0.27 | 3.11 ± 0.26 | – | –
NARRKLKGAILTTMLATRNFSAAK [CAMK2B] | 3.08 ± 0.33 | 3.15 ± 0.36 | – | –
